Reference: patent US20250034594A1, “RNA-GUIDED GENOME RECOMBINEERING AT KILOBASE SCALE” (THE BOARD OF TRUSTEES OF THE LELAND STANFORD JUNIOR …, priority 2021, published 2025)

B1: SSAP_168: SEQ ID NO: 337; Romboutsia lituseburensis (protein, listed as Romboutsia lituseburensis)
chain: SNLKNVLKNQEDKGQGITVNPTYAMKQLMIKMKNDIDLALPKNLSSERFQKVSMSAFNNNEKLQNCEPTTFIAAMMQSAQLGLEPNTPLGQVYLIPHNLNGVDKVQFQVGYKGLLQLAHRSGKLKTLYAHEVKENDEFEIDYGLEQKLIHKPLLKGNRGDVIGYYAVYHLEPSGYSFEFMTYDEVAKHGKKYSKDFEGGIWEKDFDSMAKKTVIKKLLKYAPLSIEMQKAVAFDESVKSSIDSDMLLVESIGE
B2: SSAP_85: SEQ ID NO: 254 (protein)
chain: TASKQTDIFSFVSGGEDITITLADIKNYFCANATDQECVLFGQLCKANGLNPWLKEAYLIKYDKNAPAAMVTGKDAYMKRANEHPAFDGYEAGVKVYLPDVGQVEYREGTAYYEDLGEQLIGGYAKVYRKDRSRPYYEEVPLKEYDTKQSKWKTSPATMIRKVALVHALREAFPTNIQGMYDADETPYAADYEGSFREMDDPTPAPSMRGRIAPAPVADPLEDLEADVIEAGDVE
B3: SSAP_61: SEQ ID NO: 230 (protein)
chain: ATSLKRAVTGDGKPATVQQLLTNPKIKSQIALALPQHLTPERLTRIVLTEIRRTPALAKCKPESLLAAVMQCAQLGLEPGGSLGHAWLMPFKNEVQFIIGYRGMIDLARRSGQVLSIEARGVYESDTFHVSFGLEPDLTHQPDWDPADRGKLAFVYAVARLKDGGFQFDVMSRAEVEKIRAQSPAGKSGPWVTHFEEMAKKTVIRRLFKYLPVSVEMARAVGLDEAAERGEQSDAIDADCVIESEEEATPEEKGDSAA
B4: SSAP_140: SEQ ID NO: 309; Staphylococcus equorum (protein, listed as Staphylococcus equorum)
chain: ATNETLKQKVVERKPNGVKEQSPKTQLNHLLKKMAPEIQRALPKHMDSDRMARIAMTAVSNTPKLLECDQMSFIAALMQASQLGVEPNTGLGQAYLIPYAGKVQFQLSYKGLIDLATRSGQYKSIYAHEVYTNDEFEYRYGLFKDLIHIPSQEPEGNPIGYYAVYHLKNGGYDFVYWTRERVDKHAKEFSQAVQKGWTSPWITNYDAMAKKTVLKEVLKYAPKSIEMNKAVENDSTIKEEIDKDMSTVIDVTDYSEVEEQESLETGGQTSK
B5: SSAP_244: SEQ ID NO: 413; Nicoletella semolina (protein, listed as Nicoletella semolina)
chain: LKNADPQSVFNAACMAATLNLPIQNGLGFAYIVPYQNKKEKKTEAQFQLGYKGLIQLAQRSGQFKRLVAVPVYEKQLIAEDPINGFEFDWKQKPENGEKPIGYYAYFKLLNDFTAELYMTTHEVDEHAQRYSQTYRTYLDKKSKGQWASSVWADNFEAMALKTVMKLLLSKQAPLSVEMQQAVLADQAVVKNVETNEFSYVDNQIEEAEYTELKVSTDIFEKCKQSILNKETTLQELCDSGYEFSQEQYAELEKLEVE
B6: SSAP_28: SEQ ID NO: 197 (protein)
chain: AITPNPIPAQDGSPIPSPDDIVGELARRKIYAGIPDDDVALALALCQKYGFDPLLKHLVLLATKDRDETTGQGQKHYNAYVTRDGLLHVAHTSGMLDGLETIQGKDDLGEWAEAVVYRKDMSRPFRYRVYLSEYVREAKGVWKTHPQAMLTKTAEVFALRRAFDVALTPFEEMGFDNQNIAGDTGPSPKTGFTEKAGFTGNTDFSAEASLPGKARFSTEAGLTDMTVIPPNRVTGSIPETSRLNTSAGSTGRQRRQLF
B7: SSAP_248: SEQ ID NO: 417; Peptoniphilus senegalensis (protein, listed as Peptoniphilus senegalensis)
chain: TNQIARKPVNEIKNVLSVPSVRNLFDNALADNAGAFVSSLIDLYGGDSYLQNCEPKDVVMEALKAATLKLPINKNLGFGYVVPFKNKNGKLVPTFIIGYKGLIQLAMRTGQYKAINSGIIYEGMEIKEDVLRGTLEIKGSKQSEKIKGYFAYFQLINGFEKALYMDVEEAADWGRKYSKSFAKGPWTTEFDAQAQKTCLRRLLSKYGVLSTEMQRLEKTEEDVDIAVGTIENNAVEELNIPSSQADYIVDEETGEILDDEEIVAPF
B8: SSAP_24: SEQ ID NO: 193 (protein)
chain: TNNQIVEAKGDFLTNPQLLNSGIIRKYLDPQGKASDEELAYFIAQAKAQNLNPFTKEIYFIKYGTQPAQIVTAKSAFEKKADSHPQFDGKEAGVIYLMDGEIKYSKGAFIPKGAEILGGWAKVYRKDRTYPTETEVSFEEYDNSKIRARVKELTQQGKDVTYPVMNSYGKPIGENNWDTMPCVMIRKVALVSAYREAFPAELGASYEADEIQLDNTPKDVTPQESREDVVARKMAEIEQFNKEQEANHADPEPTQNEDPIQGELLDGELEY
B9: SSAP_128: SEQ ID NO: 297; Viridibacillus sp. FSL H8-0123 (protein, listed as Viridibacillus sp.)
chain: ATNNALKEQMKQAPSKEVKPEQSLNTLLKRMGPEIQRALPKHMDADRIARIALTAVRNTPKLLDCDQMSFVAALMQSAQLGVEPNTGLGQAYLIPYGKQVQFQLGYKGLIDLAVRSGQYKAIYAHEVYEDDEFSFAYGLHKDLVHVPAPNPTGEPIGYYAVYHLQNGGYDFVYWTRERIDQHAHKFSMAVQKGWTSPWKTNFDAMAKKTVLKEVLKYAPKSIEMQKVVDADETVKTDVSDDMSNVIDVTDYTVMDQEQETIQEPTK
B10: SSAP_99: SEQ ID NO: 268; Pseudomonas stutzeri (protein, listed as Pseudomonas stutzeri)
chain: STENVAPFSQKDMQQATGQQVKPRSPADSLAAMLASPKMKAQFAAALPKHMTAERMARIVTTEIRKTPALVKCDQHSFLGSVIQCAQLGLEPGNSLGHAYLLPYGNQVQLIIGYRGMIDLARRSGQIVSLSARTVREHDEFDYQLGLHEDLTHKPFEGEHAGEITHVYAVARLQGGGVQFEVMSKAQVEAVRAQSKAGKSGPWVSHWEEMAKKTVIRRLFKYLPVSVEIQRAVTLDEAAEAGLPQGNEYVFDGDFEVVNDASGAQQ
B11: SSAP_247: SEQ ID NO: 416; Ruminococcus sp. CAG: 579 (protein, listed as Ruminococcus sp.)
chain: NERTNLQYAPAPVERFKECLNSHEIKARLKNSLKNNWTQFQTSMLDLYSGDAYLQKCDPMAVALECVKAATLDLPISKSLGFAYVVPYNNVPTFTLGYKGLIQLAQRTGQYRTINADVVYEGEIRGADKLSGMVDLSGERTGDEVVGYFAYFKLINGFEKMIYMTRAEAEKWRDDYSPSAKSKYSPWRTDFDKMALKTCIRRLISKYGIMSVEMQGVMTEEAEPRAAAAAKRAEETVQANANSKVIDIDAAPPAANESPAEAAPQPDF
B12: SSAP_251: SEQ ID NO: 420; Hathewaya proteolytica (protein, listed as Hathewaya proteolytica)
chain: ADSKKELILKESYSVLDRLIETKISAMPKDFNRTRFLQNCMTVLQDTKDIEKCQPISVARTLLKGAFLGLDFFQKECYAIPYGGTLQFQTDYKGETKMAKKYSIRPIKDIYAKVVREDDLFEEEIKEGQQFVNFKPIPFSDKPIIGAFAVVLYQDGGMEYETMSKTQIEGIRDNFSKMKNGLMWTKTPEEAYKKTVLRRLTKKIEKDFDTIEQAKTYEETSDSEFKKEEKCNEKSVFDVEYSEVESEELEQQTMLENSPFGGEQ
B13: SSAP_110: SEQ ID NO: 279; Aneurinibacillus tyrosinisolvens (protein, listed as Aneurinibacillus tyrosinisolvens)
chain: SDLKEKLEKRANETEAAPPSPAQTIAAYLKRMEPEIARALPKHMDVERLTRIALTTIRTNPRLLECTVPSLLGAVMQAAQLGLEPGLLGQCYIIPHGREATFIIGYKGMIDLARRSGNIKSIYAHDVRENDEFEYEYGLHPFLKHRPAMTDRGKFIGVYAVAHFNDGGYQFEFMPYEEIERRKLRSRSYKNGPWVTDYEEMAKKTVIRHMFKYLPLSVEIMRSAAQDETVRPDLTSDPVSIYERPIEGKIITAEDVQPEEIPNVPDAEQGDV

test system: gene editing with Cas9; assay: Screen of 322 new SSAP proteins, gene editing activity with Cas9 (Table 5); format: cell-based; parameters: Cas9 with SSAP activity: scale not given here; conditions: not given
How it was run: (§1)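 First, 322 new single-strand annealing proteins are identified from sequences. Next they are synthesized. Finally each is assayed for editing in combination with Cas9 and, separately, dCas9.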

Molecule | Cas9 with SSAP activity
B1 | 0.735
B2 | −0.312
B3 | −1.348
B4 | −1.374
B5 | −8.469
B6 | 0.503
B7 | −0.854
B8 | −3.642
B9 | 0.839
B10 | −3.807
B11 | −2.602
B12 | −0.983
B13 | −2.674

same assay, conditions: normalized

Molecule | Cas9 with SSAP activity (normalized)
B1 | 1.158
B2 | −0.125
B3 | −0.539
B4 | −0.848
B6 | 0.506
B7 | −1.210
B8 | −0.681
B9 | 0.272
B10 | −0.873
B11 | −3.388
B12 | −1.345
B13 | −0.477

test system: gene editing with dCas9; assay: Screen of 322 new SSAP proteins, gene editing activity with dCas9 (Table 5); format: cell-based; parameters: dCas9 with SSAP activity: scale not given here; conditions: not given
How it was run: as §1

Molecule | dCas9 with SSAP activity
B1 | −5.210
B2 | −5.091
B3 | −5.258
B4 | −5.000
B5 | −4.966
B6 | −4.957
B7 | −5.272
B8 | −5.319
B9 | −5.299
B10 | −5.333
B11 | 0.549
B12 | −5.041
B13 | −5.104

same assay, conditions: normalized

Molecule | dCas9 with SSAP activity (normalized)
B1 | −0.836
B2 | −1.071
B3 | −0.804
B4 | −0.780
B5 | −0.819
B6 | −0.886
B7 | −0.814
B8 | −0.711
B9 | −0.965
B10 | −0.891
B11 | 0.332
B12 | −0.760
B13 | −1.491

test system: gene editing with Cas9 and dCas9; assay: Screen of 322 new SSAP proteins, activity across all experiments (Cas9 and dCas9, Table 5); format: cell-based; parameters: scale not given here; conditions: not given
How it was run: as §1

Molecule | Activity across all experiments
B1 | −2.237
B2 | −2.702
B3 | −3.303
B4 | −3.187
B5 | −6.718
B6 | −2.227
B7 | −3.063
B8 | −4.480
B9 | −2.230
B10 | −4.570
B11 | −1.027
B12 | −3.012
B13 | −3.889
